{
  "source": "paper doi:10.1101/686782",
  "about": "(bioRxiv, 2019)",
  "proteins": {"B1": {"name": "P. savastanoi FliP (natural protein)", "chain": "ADPLSIPAITLSNGADGQQEYSVSLQILLIMTALSFIPAFVMLMTSFTRIIIVFSILRQALGLQQTPSNQILTGMALFLTMFIMAPVFDRVNQDALQPYLAEKLSAQDAVAKAQVPIKDFMLAQTRTSDLELFMRLSKRTDIPTPDAAPLTILVPAFVISELKTAFQIGFMIFIPFLIIDLVVASVLMAMGMMMLSPLIISLPFKIMLFVLVDGWALIVGTLAGSFGGV"}, "B2": {"name": "P. savastanoi FliQ (natural protein)", "chain": "MTPEVAVDLFREALWLTTVLVAILVVPSLLCGLLVAMFQAATQINEQTLSFLPRLLVMLVTLIVIGPWLLKIFMEYMLSLYTSIPTLIG", "notes": "also called FliQ5"}},
  "biological_target": "the molecule itself",
  "test": "cryo-EM structure",
  "data": [
    {"protein": "B1", "values": [
      {"measurement": "stoichiometry N", "result": 5}
    ]},
    {"protein": "B2", "values": [
      {"measurement": "stoichiometry N", "result": 5}
    ]}
  ]
}
